Results reported in patent US20040265960A1 (Pfizer, published 2004).

B1: 19F5 scFv (scFv)
scFv: EVQLVQSGAEVKKPGASVKVSCKASGYAFTDNYIHWVRQAPGQGLEWMGWINPKTGGTNYAQKFQGRVSMTRDTSINTAYMDLSRLTSDDTAVYYCTRSLSPYGGQLLYWGRGTMVTVSSGGGGSGGGGSGGGGSALSSELTQDPAVSVALGQTVRITCQGDSLRRYYASWFQQKPGQAPVLVIFGKNNRPSGIPDRFSASSSGNTASLTITGAQAEDEADYYCNSRDTSINHPVIFGGGTKLTVLG
B2: MU11 phage clone (scFv)
scFv: EVQLVQSGGGVVQPGRSLRLSCAASGFTFSSYGMHWVRQAPGKGLEWVAVISYDGSNKYYADSVKGRFTISRDNSKNTLYLQMNSLRDEDTAVYYCARHGQYALDIWGQGTMVTVSSGGGGSGGGGSGGGGSDIVMTQSPSTLSASVGDRVTITCRASQGISSWLAWYQQKPGRAPKVLIYKASTLESGVPSRFSGSGSGTDFTLTISSLQPEDFATYYCQQSYSTPWTFGQGTKLEIKRAA
B3: 18A5 scFv (scFv)
scFv: QVQLQESGPGLVKTSETLSLTCAVSGYSISSGYYWGWIRQPPGKGLEWIGSISHTGNTYYNPPLKSRVTISVDTSKNQFSLKLSSVTAADTAVYYCARGGGISRPEYWGKGTLVTVSSGGGGSGGGGSGGGGSALSSELTQDPPVSVALGQTVTLTCQGDSLRTYYASWYQQKSGQAPILLLYGKHKRPSGIPDRFSGSTSGDTASLTITGAQAEDEADYYCNSRDSSGNPHVLFGGGTQLTVLS
B4: R18 scFv (scFv)
scFv: QVQLQESGGGLVQPGGSLRLSCAASGFTFSSYAMSWVRQAPGKGLEWVSGISGSGTSTYYADSVKGRFTISRDNSKNTLYLQMNSLRAEDTAVYYCATHISERPRGAFDIWGRGTMVTVSSGGGGSGGGGSGGGGSALSSELTQDPAVSVALGQTVRITCQGDSLRKYHATWYQQKPRQAPVLVVYGKNRRPSGIPDRFSGSSSGNTASLTITGAQAGDEADYYCNSRDTSGLHYVFGAGTKLTVLG
notes: also called hIL21R18; scFv R18 clone
B5: 18G4 scFv (scFv)
scFv: EVQLVQSGAEVKKPGSSVKVSCKASGGTFNIYSVSWVRQAPGQGLEWMGRIIPMRDIANYAQRFQGRVTLTADKSSGTAYMELRSLRSDDTAVYWCATLAGPLDSWGRGTLVTVSSGGGGSGGGGSGGGGSALSSELTQDPAVSVALGQTVRITCQGDSLRTYYASWYQKRPGQAPILVMYGRNKRPSGIPDRFSGSFSGNRASLTITGAQAEDEADYYCKSRAYSGNLVEFGGGTKLTVLG
B6: MUF scFv (scFv)
scFv: QVQLVQSGAEVKKPGSSVRVSCKASGGTFNIYSVSWVRQAPGQGLEWMGRIIPMRDIANYAQRFQGRVTLTADKSSGTAYMELRGLRSDDTAVYWCATLAGPLDSWGQGTLVTVSSGGGGSGGGGSGGGGSALSSELTQDPAVSVGLGQTVTITCQGGSLRQYYASWYQQKPGQAPVVVIYGKNKRPSGIPDRFSGTTSGNTASLTITGAQAEDEADYYCKSRDSSGNHPLYVFGAGTKLTVLGAAAHHHHHH
B7: MUF antibody (human IgG1 lambda) (antibody, V domains shown)
VH: QVQLVQSGAEVKKPGSSVRVSCKASGGTFNIYSVSWVRQAPGQGLEWMGRIIPMRDIANYAQRFQGRVTLTADKSSGTAYMELRGLRSDDTAVYWCATLAGPLDSWGQGTLVTVSS
VL: SSELTQDPAVSVGLGQTVTITCQGGSLRQYYASWYQQKPGQAPVVVIYGKNKRPSGIPDRFSGTTSGNTASLTITGAQAEDEADYYCKSRDSSGNHPLYVFGAGTKLTVLG
notes: also called MUF IgG; MuF IgG protein

Tests used:
[1] = target: T1, human IL-21R expressed on cells (human, UniProt Q9HBE5 20-538); assay: cell-based or functional assay
[2] = target: T2, human IL-21R fusion protein (human, UniProt Q9HBE5 20-235, biotinylated in the assay of Example 11 (site not stated)); assay: phage ELISA on coated IL-21R fusion protein
T2 construct: Soluble fusion protein (Wyeth); The extracellular domain is said to be about residues 20-235; also called soluble IL-21R fusion protein; biotinylated human IL-21R fusion protein
Procedure: To establish the specificity of the scFᵥ's for IL-21R, a phage ELISA was performed against the IL-21R fusion protein. Individual TG1 cell colonies from the second selection were transferred to microtiter wells containing 100 μl of -2TYAG medium. M13K07 helper phage ([…]) was added to the exponentially growing TG1 culture, and the samples were incubated for one hour at 37° C. Plates were centrifuged and supernatant was removed, then the remaining pellets were suspended in 100 μl of 2TYAG and incubated overnight at 30° C. with shaking. The next day, plates were centrifuged and phage supernatant was transferred to new microtiter plate wells. Phage was blocked in MPBS prior to ELISA.
Wells of microtiter plates were coated with IL-21R fusion protein or control fusion protein (0.5-2.5 μg/ml) and incubated overnight at 4° C. The next day, fusion protein solution was removed and wells were blocked for 1 hour in MPBS. Wells were washed with PBS, then 50 μl of blocked phage was added. Plates were incubated for 1 hour, then washed 3 times with PBST and 3 times with PBS. Anti-M13-HRP conjugate (Pharmacia, Peapack, N.J.) was added to wells, and the samples were incubated for one hour. Wells were washed 3 times with PBST and 3 times with PBS. […] The color signal was measured by reading absorbance at 450 nm using a microtiter plate reader.

[3] = target: T2, human IL-21R fusion protein; assay: epitope competition assay: bio.hIL21R binding to immobilized MUF IgG (competitor), DELFIA
Procedure: The scFv clones 18A5, 19F5 and 18G4 were further tested in an epitope competition assay in order to determine whether they bound the same or a different epitope than MUF. ScFv-containing periplasmic extracts were prepared as described above for the various clones. Final buffer used was 50 mM MOPS, pH 7.4, 0.5 mM EDTA, 0.5 M sorbitol. The scFv-containing crude periplasmic extracts were screened for the ability to inhibit the binding of biotinlyated human IL-21R fusion protein (bio.hIL21R) to MuF IgG protein immobilized on plastic in a 96 well microtitre plate assay. Binding of bio.hIL21R was detected with Europium-labelled streptavidin and TRF detected using the DELFIA reagent kit (PerkinElmer). Positive clones were used in an epiope competition assay described herein.

[4] = target: T2, human IL-21R fusion protein; assay: DELFIA competition: inhibition of human IL-21R fusion protein binding to captured IL-21-FLAG
Procedure: ScFv production was induced by addition of 1 mM IPTG to exponentially growing cultures and incubation overnight at 30° C. Crude scFv-containing periplasmic extracts (Griffiths et al.(1993) EMBO J., 12:725-734) were screened for the ability to inhibit the binding of human IL-21R fusion protein to human IL-21-FLAG tagged protein. Briefly, anti-FLAG antibody was immobilized onto plastic and used to capture FLAG-tagged human IL-21 protein. Binding of human IL-21R fusion protein was detected with a Europium-labelled antibody to the IL-21R fusion protein, and time resolved fluorescence was detected with the DELFIA reagent kit (PerkinElmer, Boston, Mass.).

[5] = target: T1, human IL-21R expressed on cells; assay: cell-based or functional assay; remark: listed apart in the source

T1 sequence (Q9HBE5 20-538): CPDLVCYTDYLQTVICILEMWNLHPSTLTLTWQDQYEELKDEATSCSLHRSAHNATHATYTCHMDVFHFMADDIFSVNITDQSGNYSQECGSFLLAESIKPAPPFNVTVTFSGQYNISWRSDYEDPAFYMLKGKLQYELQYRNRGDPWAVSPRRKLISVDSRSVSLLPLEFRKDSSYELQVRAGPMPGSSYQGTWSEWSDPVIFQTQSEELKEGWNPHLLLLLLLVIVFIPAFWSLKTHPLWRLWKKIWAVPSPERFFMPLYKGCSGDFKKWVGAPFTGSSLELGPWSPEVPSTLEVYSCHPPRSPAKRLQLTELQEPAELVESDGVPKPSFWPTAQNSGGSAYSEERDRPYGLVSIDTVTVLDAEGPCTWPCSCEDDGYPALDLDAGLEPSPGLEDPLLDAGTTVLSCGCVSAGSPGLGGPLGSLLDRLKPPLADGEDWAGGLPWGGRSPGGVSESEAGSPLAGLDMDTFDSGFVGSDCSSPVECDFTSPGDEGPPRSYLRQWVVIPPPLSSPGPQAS
T2 sequence (Q9HBE5 20-235): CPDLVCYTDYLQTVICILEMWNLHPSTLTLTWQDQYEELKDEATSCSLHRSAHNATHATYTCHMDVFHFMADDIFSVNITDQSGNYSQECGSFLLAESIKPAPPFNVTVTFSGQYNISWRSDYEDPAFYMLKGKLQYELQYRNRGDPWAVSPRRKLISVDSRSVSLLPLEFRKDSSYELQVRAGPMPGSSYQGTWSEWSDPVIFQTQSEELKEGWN

Row | Binder | IC50 Value (nM) ScFv, hBaf3Mu-1 cell proliferation assay [1] [nM] | IC50 [3] [nM] | also measured
1 | B1 | 91 | – | –
2 | B2 | – | – | binding result [2]: binds
3 | B3 | 213 | 114 | –
4 | B4 | 473 | – | IC50 [4]: 770 nM
5 | B5 | 522 | 1.4 | –
6 | B6 | 140 | – | IC50, inhibition of cell response to IL-21 (hBaf3Mu-1 proliferation) [5]: 268 nM
7 | B7 | – | 0.4 | IC50, inhibition of cell response to IL-21 (hBaf3Mu-1 proliferation) [5]: 3 nM
